Laboratory results taken from the DeepSol protein solubility set.

test: soluble on expression in E. coli; label from the status in PepcDB or PDB records

| Sequence | soluble on expression in E. coli |
| --- | --- |
| MYNALYLYCSEYKYEDSIMTISIRLPSDLETRLNNLAAKTGRTKSFYLREIIERGIEEAEDYYLASQVRERVRKGEGTFYSSEEVRKELGLDD | not soluble |
| MGSDKIHHHHHHMPSETIKLTAKFKLKEIPNGLDVLFSTYREIVNFLISYAYENNITSFYRLKKETYKNLRKEYPELPSHYHYTAIDMATKIYRGYRKRRGKAKGKPVFKKEVIMLDDHLFKLDFEKRIVKLSTPSGRIELEFYPAKYHEKFKGWKVGQAWLVKTPKGLFINVVFSREVEIREPENFIGVDLNENNVTLCLPKGEFIQIITHEREIRTGYFVKRRKIQKNLRVGKKREELLEKYGSRERNRVDDLYHKLANKIVELAEKYGGIALEDLTEIRDSIRYSAELNGRLHRWSFRKLQRIIEYKAKLRGIKVIFVNPAYTSTLCPICGGKLSPNGHRVLKCKCGFEADRDVVGSWNVRLKALKMWGVTVPPESHPMKKGGWKVSRIDITQITADQNGYFMRRLRRALLLQ | not soluble |
| VNFDDIASSENLLHLTANRPKMPGRRLPG | soluble |
| MVDQGILRLRQKDASLEFGPPRRRTTVVNWYQERHGTRLTKPEWPLAFVCRNPGTCLQIELVTVMII | not soluble |
| MMAAREQRSFRQLSLLRQFEGQSLLCASMNIPGPIKCSESLNKTFQSIINLVKEDLRGRIIFEREVHQKTGWEYYCLSDLPVSELKTKMIAIETKISIGRLMDLDVLHLVNGIPQPISRQELGFPRRQCYICQNDAKVCSRSRKHSVIEMQEAIAKFIKINH | not soluble |
| MSSPDSAAHQFSICRVCDDSNGQPHYGTICCPSCKGFFRRVYMSDKKFECYRGNMCVIQKGTRNICRACRYKKCLQVGMNVKGSTTRHNLRINIYVQTSAESTPKSSKDTEMGVAEAMEMAQVYMNLEKYCENNYCESNMCREEENRLIDRMLSSTVHELIQKTSPQCPRFKRDWKPLEMLNLENFCRSWSRSIVHFLDFATRFPVFNQLSHIDKRAWFISRLAPCSFLTMAYQTRIEMCEGLLFGCSNVFPLKSDRWIAVETEHLRGLFSSITETMFSFVIYPMMNLKITDLHYSLLKACVFFSAGIVVTSVSDKGMEIMRNEYTKHKNALMKLLMNGVERFSQQTDILFQIQDVQNTLEHHKHLKSQQI | soluble |
| VNTFSVSRLALALAFGVTLTACSSTPPDQRPSDQTAPGTSSRPILSAKEAQNFDAQHYFASLTPGAAAWNPSPITLPAQPDFVVGPAGTQGVTHTTIQAAVDAAIIKRTNKRQYIAVMPGEYQGTVYVPAAPGGITLYGTGEKPIDVKIGLSLDGGMSPADWRHDVNPRGKYMPGKPAWYMYDSCQSKRSDSIGVLCSAVFWSQNNGLQLQNLTIENTLGDSVDAGNHPAVALRTDGDQVQINNVNILGRQNTFFVTNSGVQNRLETNRQPRTLVTNSYIEGDVDIVSGRGAVVFDNTEFRVVNSRTQQEAYVFAPATLSNIYYGFLAVNSRFNAFGDGVAQLGRSLDVDANTNGQVVIRDSAINEGFNTAKPWADAVISNRPFAGNTGSVDDNDEIQRNLNDTNYNRMWEYNNRGVGSKVVAEAKK | soluble |
| MSLEKELVTWFNILNKPPLEYLKGVEDFYNAYGEVLEMQDRHAHLLSYKDDDYLHVILCASILHHYSDQDIETLKELLVKFYYQDWVAGQTKTTRSQTCCNIINVLKEKKSMDYITSIVKEYLDDKNITQRFKDNLKDSNLYTKFYFINGKTAKKNSWVKPILILVEYFMSDNANPACIKMDDDLHVERILPQNPDPSSQWMKDFSEEERGLYTHSLANLTLLGGKKNTKALSQALNQDFKEKKEIYMGKTIMLDNKKTFRVMTCYDMTKNDVCRYTEWTPTSLEKRKESEGHHHHHH | not soluble |
| MIKIPQAGRDLETIAVIGAGTIGSAISISLAKAGYHVISTRRRPDLNAGLKAYGITVTSDNVQAVTSADMVILTLKPADLVSEMKKLSQILEGKIVVSMAAAVPIRVIRHILPRSFIVRSMTNIAAEVNAGYTPFCTLEEDEGKISFVSRVLGVFGETERVDEKYMDALTAL | not soluble |
| MSSGVMVDPDVQTSFQKLSEGRKEYRYIIFKIDENKVIVEAAVTQDQLGITGDDYDDSSKAAFDKFVEDVKSRTDNLTDCRYAVFDFKFTCSRVGAGTSKMDKIIFLQICPDGASIKKKMVYASSAAAIKTSLGTGKILQFQVSDESEMSHKELLNKLGEKYGDH | not soluble |
| MAHHHHHHMSTDIPVNDNETNSSFKLKSEINSIENELKNWFLKRRLNMEINYSLKKLFDSYNFVGLSINNNINLKDKMLWYDIVNGKPELEDTLSMDAKEYKADQYSYLWNKSTTIDNACRLVGSIYFRCLKNNFQLKKSEREHKCIQNFINFNNCRNALKLQQANNIKDSLIKQNMEDNIAKALFERRSLLLDMLEDFK | not soluble |
| GMHSNINTLIANHRAGHALDQAFYTDAEVFQTDLQEIFYKEWLFAIPACELDKPGSYVTHQVGNYNVIIVRGADNVIRAFHNACRHRGSVICKAKKGNNPKLVCPYHQWTYELDGRLLWARDMGPDFEPSRHGLKTVHCRELAGLIYICLADEAPDFERFAEVARPYLEVHDLSNAKVAHESSIVERGNWKLVWENNRECYHCGGNHPALCRTFPDDPSVTGIEGGETPSNLQAHFDRCEQAGMPSGFHLSGDGQFRVARMPLKEGAESYTMDGKTAVRRWLGRAAFADAGSLLKFHYPTTWNHFLSDHSIVFRVTPISPTETEVTTKWLVHKDAVEGVDYDLQRLTEVWIATNDEDREVVEFNQMGINSPAYEPGPYSPTQESGVLQFVEWYLSTLKRNSGPHAVAAE | soluble |
| MTQCFKCKQAIGTVVSRDGPTKLYCPDCFLAYCAGAVRENAFQQCRVPSDTPLAVAVSGGPNSMMLLRELGQLRYKTRDQIRRQHLTPQRQAPAQGGKSRSTPTSSPPARSTPLASSLILLPFHLCEDELVLPLPPPLSSSTSSPSSLHAISGRHEAVNRVRSAMEEQFATLRKYVQQQPPRWVYHGEVPCGHKRTKKQQNNPTAAERTGAAHAGGANIATPELSHRGGGSTSAPSPQPRPQRQAGESGETAAATARLFDDSEIRLFRYSDLLSGTYLSELRYALHVSRLSLSDREALYARVRQQTLCRAAQRVCQEHRQRNAAAAAATAVVVGGVAHEEGIREDAAQCSEEQAPFDEHVSLEGTNSKTRSHLLLGSNAVRCATAALEALVTGAGGEGVVHGAGFRGFTHEVVCLRPLRAMLPKETIMYTRLCGIAGSYTPALCTGTATRSVHRTLEQFVLTMMTSYRTMIFNVLNTVQRLEVHPAAMQELLRGIDDASACHTHVHGEGLAEAGSTQSAGKTTRKALPARTAQLNRTDMCLAAPLHVRRDLGGVNVNEADIDSVIAMCCVCGCPASITSCYRGQNANTAVRQLEMLALNTTSAMTPRTSGASPSTVADAASASEASPTTTGCFLCYACQGLADAWPPSVFGRDSTTENDEQPGNDSTTAAGAAARHGAIASTAALFRLCALFY | not soluble |
| MNGNSTNNEQLQQELATTQDQVASIIESFVELGVSIYDFPGTPEATKGMITNLQRNVDRLYKLNVRSNDPQSSLSKVDIPLEVVQYIEDGRNPDIYTREFVEAIRRSNQYQRGKMHGLKQLRDSLADKIVDEFPELKEPVEDIIKRTSPIDNVSNTH | not soluble |
| MENKEKIFNAQHPLSNVNARSITYRSGGKSPKSPRRVDEENKTDEELGDALGISHRCDECDEMMKFETWVERQDAILECGHGYCKKCIPNIKKDAHTLTKCPVVAVKCRIPNWYQTGQAAKPSHRKSEAARKEYSTKAKLWNFEYKGRPLVVSLRRDATYGDLETSLSMLLNIDLKTNMILIHLPHSYNGADVNYFMKADDSLTNGPYEKDTKLSHLRHPKIAALSLEVTEKKTPSSETPSKENPKSPGPLDSNK | not soluble |
| QVRLVESGGGVVQPGGSLRLSCEGSGFKFGDHGIHWVRQAPGEGLQWLTVISSDGTDERYTDSVKGRFTISRDNSKNTMSLQMNNLRPEDMGLYYCARDGKCGGGRCYSGLLDYWGQGTMVTVSSASFKGPSVFPLAPSSKSTSGGTAALGCLVKDYFPEPVTVSWNSGALTSGVHTFPAVLQSSGLYSLSSVVTVPSSSLGTQTYICNVNHKPSNTKVDKKVEPKSCDKTHTGLEHHHHHH | soluble |
| MTNHPIQGLMTTAMENLKQMIDVNTIIGDPVETPDGSVILTVSKVGFGFAAGGSEFMLDGQQNGHQGAQADGNGHPFGGGSGGGVSITPIAFLVVNSSGVKLLHLDESTHLYEKILDVAPQAFEKIQAMLKKNKKDGAAGQKADDFDI | not soluble |
| MGSDKIHHHHHHMNAPRFAAPARRTKKLPPLRVGIGGPVGSGKTTLLEMLCKGMRERYDLVAITNDIYTKEDQRLLTIAGALPEARIMGVETGGCPHTAIREDASINLEAVERMLARFPDADIVFIESGGDNLAATFSPELSDLTIYVIDVAGGEKIPRKGGPGITKSDLLVINKTDLAPLVGANLEVMASDTRKMRGERPYVMCNLKALDGVADVIAFIENKGLLTV | not soluble |
| MGSDKIHHHHHHMSHRKALLIHNGNAANKNIEKALGAVVPVLSHHLDEVIIKQTKKKDHAYHFCRSIDDSVDTVFILGGDGTIHQCINAISALERKPAVGILPGGTSNDFSRVLGIPQNLAKAAEALMAGKKTSVDVCQMNDRYFLNFWGIGLIAETSNQINETEKALLGKISYFTSALRTVSSAASFPMTLKIDGEEIKEEAVMLLVMNGQYIGTNRIPLPDASIEDGLLDVLICRNTNLTALRELMSMEQGSIDRFTGELSYVQASRIEIETDTAKKADMDGEVYTHTPAVIQVLPQHIDMLVPANE | not soluble |
| MGSDKIHHHHHHMIWKLSERKDWNSLEQQFGWVRDMNQVPQHTVHHAEGSVAVHTRMVLEALLRQPAYPMLPEQEREILWAAALLHDVEKRSTSVDEGNGQVTSKNHAKRGETTVRTLLYRDIPAPFNIREHIASLVRHHGLPIWLMEREDPLKRACEASLRLDTSLLKQLTVADICGRISTDKEVLLEATEFFEMFCREQQCWGKAREFANGTARFHYFHTPRSYIDYVPHDDFKCGVTLLVGLPGMGKDYYIESRCADMPVVSLDAIRRKHKFSPTDKAANGWVAQTAKEQARIYLRKGQDFIWNATNVSRQRRTQLIDLFITYGARVKIVYIEKPYSVWRRQNSTREYEVPETVLDKMLGRLEVPQLTEAHEVVYVVEE | not soluble |
| MGSDKIHHHHHHMLMTPDEDRITQLYEAFNRRAFDRCIAMLAPDVSWPDELEDRRLEGLDAVRAYLDHAIAPLRVCYQPIALFTPSPGQIEVLARQTVLSATDGSLWSSLRVRHRYTIKDGLFTHLESEQNYTAPTFEGVDRLLRRLYDAINAGDVDGAAACFGDHACFEDKLEDGPISGPAAIRAHFEHLFATLQVTATMCDYALEPDDRVRVRLQVEARGATGRLWHDGGVTAWYRLEGGLIVGQDVDDSGEEAP | not soluble |
| MKVLVSPMSVAEAIEAIEGGADIIDVKNPAEGSLGANFPWVIREISELAKKYGKEISATTGDMPYKPGTASLAALGAAVAGADYIKVGLYGVKNAEEAYEMMVGVVRAVKDFDSSKKVVAAGYGDYYRISSVSPLDLPEAVAKAGADIVMVDTAIKDGTSLFDHMKIGDIESFVKLARDNGLMVALAGNISWNHIETLKELSPDIIGVRSIVCEGDRSSMIKRELVVKLMEAVHG | not soluble |
| MGSDKIHHHHHHMYLDVIEPDHPDYLTALLVKADLYDTEGLTEVAREKLLEASQISQEPLVIFGLAEIEMNLSDFQAAIQHYAQLDNRAILEETGVSTYERIGRAYASLGKFETAIEFLEKAVEIEFDETTVFEVATLLYDQEEYQRANLYFKQLDSMNPDFAGYEYNYALSLHAEHQTKQALRMLQQGLSKNEFDSQLLLLASQLSYELHDKKAAENYLLKVLETAEDDEEALMRLSNLYLEENRFEDVINLDRADIDSVLTKWNIAKAYQKLEADTKALEIYDTLIVDLADNPDFLKDYIYILRKFGYDEKVKTFADKYLQLVPDDNDIADLREQLQ | not soluble |
